Data taken from publication PMC2635920 (Nature structural & molecular biology, 2009).

T1: Tip20p, full-length (residues 1-701) (S. cerevisiae, UniProt P33891 1-701)
T1 sequence (looked up): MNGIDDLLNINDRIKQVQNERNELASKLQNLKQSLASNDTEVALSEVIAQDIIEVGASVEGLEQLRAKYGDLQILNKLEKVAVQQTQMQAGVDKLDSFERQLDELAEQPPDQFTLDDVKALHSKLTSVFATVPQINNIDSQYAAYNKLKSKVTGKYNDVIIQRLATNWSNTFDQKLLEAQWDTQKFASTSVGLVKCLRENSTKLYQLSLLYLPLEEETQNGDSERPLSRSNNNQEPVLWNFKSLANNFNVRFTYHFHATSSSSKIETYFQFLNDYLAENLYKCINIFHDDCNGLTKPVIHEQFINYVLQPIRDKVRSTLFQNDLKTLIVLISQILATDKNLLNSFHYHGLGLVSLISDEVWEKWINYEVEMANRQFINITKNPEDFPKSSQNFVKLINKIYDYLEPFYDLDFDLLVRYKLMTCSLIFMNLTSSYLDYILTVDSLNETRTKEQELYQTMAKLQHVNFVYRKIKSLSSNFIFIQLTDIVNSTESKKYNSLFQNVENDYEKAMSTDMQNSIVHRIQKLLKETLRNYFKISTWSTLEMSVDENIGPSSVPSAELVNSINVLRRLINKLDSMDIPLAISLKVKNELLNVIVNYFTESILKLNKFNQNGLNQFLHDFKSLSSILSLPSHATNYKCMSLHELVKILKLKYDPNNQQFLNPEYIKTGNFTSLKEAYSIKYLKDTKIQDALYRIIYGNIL

T2: Tip20ΔN (Tip20p residues 82-701) (S. cerevisiae, UniProt P33891 82-701)
T2 sequence (looked up): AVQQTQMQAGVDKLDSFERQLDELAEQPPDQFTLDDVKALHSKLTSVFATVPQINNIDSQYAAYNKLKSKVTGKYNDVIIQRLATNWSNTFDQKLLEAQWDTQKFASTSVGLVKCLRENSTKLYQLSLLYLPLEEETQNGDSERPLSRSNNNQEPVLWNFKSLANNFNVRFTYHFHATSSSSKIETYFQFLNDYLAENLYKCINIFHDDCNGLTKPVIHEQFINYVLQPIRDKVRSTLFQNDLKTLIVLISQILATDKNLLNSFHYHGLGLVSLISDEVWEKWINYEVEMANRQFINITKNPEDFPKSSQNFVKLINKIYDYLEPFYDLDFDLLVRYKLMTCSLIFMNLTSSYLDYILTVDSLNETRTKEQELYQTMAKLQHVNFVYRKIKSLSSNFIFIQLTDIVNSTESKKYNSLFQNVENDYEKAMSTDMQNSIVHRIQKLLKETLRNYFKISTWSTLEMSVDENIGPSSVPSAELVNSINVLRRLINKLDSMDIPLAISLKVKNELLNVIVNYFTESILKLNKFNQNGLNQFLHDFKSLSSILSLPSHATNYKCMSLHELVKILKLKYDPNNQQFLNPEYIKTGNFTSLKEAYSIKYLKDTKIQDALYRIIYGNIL

B1: Dsl1ΔC (Dsl1p residues 1-361) (domain or fragment, S. cerevisiae, UniProt P53847 1-361, looked up)
chain: MESLFPNKGEIIRELLKDPLILKNDSKRSNGSELELDSSDLLQREAILANELNILDNLKTFLNLIKEVKTNLNILELENCYYSLQSLRKKMRNNAAYLKQSFNFQQSISTYVDTLHLELVSTLYKILTNGFWKITENSIQFTPTVEWGKDKVHIEYDTFMDFVAQQYFPKGSLDNQAWFILDMTSADSQEQVRAKLNTIMKEYMNLSRIVSMIKNSIFISGKEISYENEKNILVFSKSSSHGQHCVSTVLTSFEAVCDFMLDGLAFRDRKTLSYELGPLFNTEFTKFVKNNASIILESLDSPLKNLVSVINNKLTRLVAKSEVTNWTHSGKEIQDLLMNKQLYYNLLLDKVLESHISEIRS
B2: GST-Tip20p (residues 1-43) (domain or fragment, S. cerevisiae, UniProt P33891 1-43, looked up)
chain: MNGIDDLLNINDRIKQVQNERNELASKLQNLKQSLASNDTEVA
B3: Sec20ΔC (cytoplasmic domain of Sec20p, residues 1-275) (domain or fragment, S. cerevisiae, UniProt P28791 1-275, looked up)
chain: MVVTFLQDLEVLQDALLNNLQKLSAISRRKESGESKHDNKDSFAAIANEHNDEEEEIEFEDLVNIIESKVSDFESVLKCSIVEMTYKYPELKLQWEKSPRYDQCDKLHIVKLDKQMNEDIYAQLVEELDFVLQFVDWFYCYRLKVKEILRQHHKRDLAWNDEKRDRAIKFHAVDYDKLHQGTSSSSSLTSTSMEKASTREKLLSKTKQLTNNLVRGNQILQSGILQSDLNLDELRAQTNSLTQIDDKYTQFETVFKKTADLVKVLENASHQEKRD

What was measured:
[1] = biological target: T1, Tip20p, full-length (residues 1-701); assay: AUC
[2] = biological target: B1; assay: pull-down
[3] = biological target: T1, Tip20p, full-length (residues 1-701); assay: SEC
[4] = biological target: T2, Tip20ΔN (Tip20p residues 82-701); assay: SEC
[5] = biological target: intact Dsl1p complex (Tip20p-Dsl1p-Sec39p) (S. cerevisiae, UniProt P33891 1-701; P53847 1-754; Q12745 1-709); assay: SEC
Sequence of intact Dsl1p complex (Tip20p-Dsl1p-Sec39p) (Q12745 whole entry, one chain of several): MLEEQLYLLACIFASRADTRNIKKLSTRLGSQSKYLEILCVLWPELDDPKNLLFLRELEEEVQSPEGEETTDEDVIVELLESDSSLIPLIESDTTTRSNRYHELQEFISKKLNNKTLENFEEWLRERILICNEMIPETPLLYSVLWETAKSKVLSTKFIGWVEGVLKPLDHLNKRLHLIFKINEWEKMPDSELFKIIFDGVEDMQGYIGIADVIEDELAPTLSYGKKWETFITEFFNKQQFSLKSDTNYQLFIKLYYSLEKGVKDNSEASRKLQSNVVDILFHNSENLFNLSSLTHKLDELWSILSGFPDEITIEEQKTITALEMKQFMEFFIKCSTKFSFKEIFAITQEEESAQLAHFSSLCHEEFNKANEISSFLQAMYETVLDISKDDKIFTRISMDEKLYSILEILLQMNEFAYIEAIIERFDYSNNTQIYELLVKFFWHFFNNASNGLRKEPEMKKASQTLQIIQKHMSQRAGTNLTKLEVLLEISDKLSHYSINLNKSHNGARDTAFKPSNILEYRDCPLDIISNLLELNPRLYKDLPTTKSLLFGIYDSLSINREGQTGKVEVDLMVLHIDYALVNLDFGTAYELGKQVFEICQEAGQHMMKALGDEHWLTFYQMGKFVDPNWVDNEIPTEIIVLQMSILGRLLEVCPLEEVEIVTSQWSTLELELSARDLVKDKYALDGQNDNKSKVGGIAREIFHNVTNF

Binder: B1
stoichiometry N [1]: 1

Binder: B2
binding result [2]: binds

Binder: B3
binding result [3]: binds
binding result [4]: binds
binding result [5]: binds
